{"source": "patent US6399352B1", "about": "“Plant porphobilinogen synthase and fusion protein thereof” (Paradigm Genetics, Inc., priority 1999, dated 2002)", "assay": "Enzyme activity of plant thioredoxin-porphobilinogen synthase: PBG formation from ALA (EC 4.2.1.24)", "assay_type": "biochemical", "settings": "37° C., 1 hour, Tricine buffer pH 7.9, 2.5 mM ALA, 5 mM MgCl2, 1.25 μg purified recombinant protein; Ehrlich's reagent, OD 555 nm", "procedure": "Enzyme activity is tested in accordance with EC 4.2.1.24 using the following assay principle: [drawing 1] The enzyme activity of plant thioredoxin-porphobilinogen synthase (T-PPS) is measured as porphobilinogen (PBG) formation from δ-aminolevulinic acid (Aminolevulinate or ALA). A typical reaction is as follows: the reaction is carried out at 37° C. for 1 hour in Tricine buffer pH 7.9 or other suitable biochemical buffer, 2.5 mM ALA, 5 mM MgCl2 and 1.25 μg of purified recombinant protein from E. coli expression system in a final assay volume of 100 μl. PBG is quantified spectrophotometrically after reaction with the 100 μl Ehrlich's reagent solution. Optical density is determined after 60 minutes at 555 nm.", "data": [{"substance": "plant thioredoxin-porphobilinogen synthase: fusion protein of thioredoxin and tomato plant porphobilinogen synthase, expressed in E. coli (SEQ ID NO: 2)", "values": [{"measurement": "enzyme activity (conversion of ALA to PBG)", "value": "active"}]}]}
